Patent US20240181022A1, “AMURINS LYSINS, AND LYSIN-ANTIMICROBIAL PEPTIDE (AMP) CONSTRUCTS ACTIVE AGAINST GRAM-NEGATIVE BACTERIA” (priority 2021, published 2024)

Assays:
K. pneumoniae [1] = test: Checkerboard synergy assay (FICI) against K. pneumoniae; format: cell-based, Klebsiella pneumoniae; settings: K. pneumoniae HM-44
Procedure: Any known method to assess MIC may be used.
Checkerboards are constructed by first preparing columns of e.g., a 96-well polypropylene microtiter plate, wherein each well has the same amount of antibiotic diluted 2-fold along the horizontal axis. […] Bacteria are added to the drug combinations at concentrations of 1×10^5 […] in CAA, for example, with or without human serum or pulmonary surfactant. […] Summation fractional inhibitory concentrations (ΣFICs) are calculated for each drug and the minimum ΣFIC value (ΣFICmin) is used to determine the effect of the Chp peptide/antibiotic combination.
GN370 was further tested in combination with up to seven additional antibiotics (in addition to meropenem) against a variety of bacterial strains, including P. aeruginosa, A. baumannii, E. coli, E. cloacae, and K. pneumoniae. GN370 and the subject antibiotics were tested in a checkerboard assay format, and FICI values were determined, wherein ≤0.5 indicates synergy, >0.5-≤1 indicates additive; and >1 indicates indifferent.

Enterobacter aerogenes = test: MIC by broth microdilution against Enterobacter aerogenes; format: cell-based; settings: N 1
Procedure: (§1) MIC values were determined by broth microdilution against clinical isolates and resistant isolates from a wide range of bacterial species, including isolates from the CDC Antibiotic Resistance bank, including the GN ESKAPE pathogens and E. coli, including carbapenem-resistant Enterobacteriaciae, Acinetobacter, and Pseudomonas.

Klebsiella oxytoca = test: MIC by broth microdilution against Klebsiella oxytoca; format: cell-based; settings: N 1
Procedure: as §1

[2] = test system: Raoultella ornithinolytica; test: MIC by broth microdilution against Raoultella ornithinolytica; format: cell-based; settings: N 1
Procedure: as §1

E. coli = test: MBEC against E. coli biofilm; format: cell-based, Escherichia coli; settings: MDR and XDR E. coli (11)
P. aeruginosa = test: GN370 time-kill assay, P. aeruginosa; format: cell-based, Pseudomonas aeruginosa; settings: for Log10 CFU/mL: P. aeruginosa PA25
Procedure: (§2) A kinetic analysis of GN370 bactericidal activity was performed using a time-kill assay format in which CFU reductions of each target organism (P. aeruginosa, K. pneumoniae, A. baumannii, E. coli, and E. cloacae) were measured over 24 hours at 37° C. […] Bactericidal activity was defined as CFU reductions of ≥3-log 10 CFU/mL as compared to the inoculum at the 24-hour time point.

K. pneumoniae [3] = test: GN370 time-kill assay, K. pneumoniae; format: cell-based, Klebsiella pneumoniae; settings: for Log10 CFU/mL: K. pneumoniae ATCC 700603
Procedure: as §2

[4] = test system: A. baumannii (ATCC BAA-747); test: microbe, parasite or virus in culture; format: cell-based, Acinetobacter baumannii
[5] = test system: Ralstonia mannitolilytica; test: MIC by broth microdilution against Ralstonia mannitolilytica; format: cell-based; settings: N 10
Procedure: as §1

Serratia marcescens = test: MIC by broth microdilution against Serratia marcescens; format: cell-based; settings: N 9
Procedure: as §1

Molecule: C[C@@H](O)[C@H]1C(=O)N2C(C(=O)O)=C(S[C@@H]3CN[C@H](C(=O)N(C)C)C3)[C@H](C)[C@H]12 [meropenem, reference compound]
- FICI of the antibiotic with GN370 (K. pneumoniae [1]): 0.5

B1: GN370: lysin-AMP construct, SEQ ID NO: 149: MIDR, FIRL and NPTH moieties N-terminal to GN202 lysin (protein)
chain: MIDRFIRLNPTHGPRRPRRPGRRAPVRTSQRGIDLIKSFEGLRLSAYQDSVGVWTIGYGTTRGVTRYMTITVEQAERMLSNDIQRFEPELDRLAKVPLNQNQWDALMSFVYNLGAANLASSTLLDLLNKGDYQGAADQFPHWVNAGGKRLDGLVKRRAAERALFLEPLS
modifications: GN370 lysin
- MIC Range (Enterobacter aerogenes): 1 µg/mL
- MIC Range (Klebsiella oxytoca): 4 µg/mL
- MIC Range [2]: 0.25 µg/mL
- MBEC50 (E. coli): 0.5 µg/mL
- MBEC90 (E. coli): 2 µg/mL
- MBEC Range (E. coli): 0.25 to 2 µg/mL
- Number of isolates at MBEC 0.5 μg/mL (E. coli): 5
- Number of isolates at MBEC 1 μg/mL (E. coli): 2
- Number of isolates at MBEC 2 μg/mL (E. coli): 2
- Number of isolates at MBEC […] (E. coli): 2
- Log10 CFU/mL (P. aeruginosa; 0.2x MIC, 1 hr): 4.5 Log10 CFU/mL
- Log10 CFU/mL (P. aeruginosa; 0.2x MIC, 3 hr): 4.7 Log10 CFU/mL
- Log10 CFU/mL (P. aeruginosa; 0.2x MIC, 24 hr): 9.5 Log10 CFU/mL
- Log10 CFU/mL (P. aeruginosa; 1x MIC, 1 hr): 1.5 Log10 CFU/mL
- Log10 CFU/mL (P. aeruginosa; 1x MIC, 3 hr): 1.5 Log10 CFU/mL
- Log10 CFU/mL (P. aeruginosa; 1x MIC, 24 hr): 1.54 Log10 CFU/mL
- Log10 CFU/mL (P. aeruginosa; 2x MIC, 1 hr): 1.5 Log10 CFU/mL
- Log10 CFU/mL (P. aeruginosa; 2x MIC, 3 hr): 1.5 Log10 CFU/mL
- Log10 CFU/mL (P. aeruginosa; 2x MIC, 24 hr): 1.5 Log10 CFU/mL
- Log10 CFU/mL (P. aeruginosa; 5x MIC, 1 hr): 1.5 Log10 CFU/mL
- Log10 CFU/mL (P. aeruginosa; 5x MIC, 3 hr): 1.5 Log10 CFU/mL
- Log10 CFU/mL (P. aeruginosa; 5x MIC, 24 hr): 1.5 Log10 CFU/mL
- concentration with bactericidal activity (≥3-log 10 CFU/mL reduction at 24 hours) (P. aeruginosa; P. aeruginosa, 37° C.): ≥ 1 ×MIC
- Log10 CFU/mL (K. pneumoniae [3]; 0.2x MIC, 1 hr): 5.2 Log10 CFU/mL
- Log10 CFU/mL (K. pneumoniae [3]; 0.2x MIC, 3 hr): 5.0 Log10 CFU/mL
- Log10 CFU/mL (K. pneumoniae [3]; 0.2x MIC, 24 hr): 8.5 Log10 CFU/mL
- Log10 CFU/mL (K. pneumoniae [3]; 1x MIC, 1 hr): 2.0 Log10 CFU/mL
- Log10 CFU/mL (K. pneumoniae [3]; 1x MIC, 3 hr): 1.5 Log10 CFU/mL
- Log10 CFU/mL (K. pneumoniae [3]; 1x MIC, 24 hr): 1.5 Log10 CFU/mL
- Log10 CFU/mL (K. pneumoniae [3]; 2x MIC, 1 hr): 1.5 Log10 CFU/mL
- Log10 CFU/mL (K. pneumoniae [3]; 2x MIC, 3 hr): 1.5 Log10 CFU/mL
- Log10 CFU/mL (K. pneumoniae [3]; 2x MIC, 24 hr): 1.5 Log10 CFU/mL
- Log10 CFU/mL (K. pneumoniae [3]; 5x MIC, 1 hr): 1.5 Log10 CFU/mL
- Log10 CFU/mL (K. pneumoniae [3]; 5x MIC, 3 hr): 1.5 Log10 CFU/mL
- Log10 CFU/mL (K. pneumoniae [3]; 5x MIC, 24 hr): 1.5 Log10 CFU/mL
- concentration with bactericidal activity (≥3-log 10 CFU/mL reduction at 24 hours) (K. pneumoniae [3]; K. pneumoniae, 37° C.): ≥ 1 ×MIC
- change in MIC over 28-day serial passage ([4]; A. baumannii (ATCC BAA-747)): No change
- MIC ([4]; A. baumannii ATCC BAA-747, target organism of serial passage study): 1 µg/mL
- MIC50 [5]: >64 µg/mL
- MIC90 [5]: >64 µg/mL
- MIC Range [5]: >64 µg/mL
- MIC50 (Serratia marcescens): 32 µg/mL
- MIC90 (Serratia marcescens): >64 µg/mL
